# Starred links: 1 amine or outer side, 2 acyl side, 3 side chain; linkers in the order of their positions; H or OH if unused. Positions of bridges follow the written chain, without caps; N, C: chain ends. Non-standard residues stand in square brackets, D forms with d. dPhe(4-NHAc) = 4-acetamido-D-phenylalanine, CC(=O)Nc1ccc(C[C@@H](N[*:1])C(=O)[*:2])cc1; dPhe(4-tBu) = CC(C)(C)c1ccc(C[C@@H](N)C(=O)O)cc1; dPhe(4-Br) = N[C@H](Cc1ccc(Br)cc1)C(=O)O; dPhe(4-I) = N[C@H](Cc1ccc(I)cc1)C(=O)O; d2Nal = N[C@H](Cc1ccc2ccccc2c1)C(=O)O; d(αMeF) = C[C@@](N)(Cc1ccccc1)C(=O)O; NMeR = CN[C@@H](CCCNC(=N)N)C(=O)O; Tic = O=C(O)[C@@H]1Cc2ccccc2CN1; dTic = O=C(O)[C@H]1Cc2ccccc2CN1; Cit = NC(=O)NCCC[C@H](N)C(=O)O; Nle = CCCC[C@H](N)C(=O)O; Aib = CC(C)(N)C(=O)O
# What was measured:
# Test in all cases: cell-based or functional assay
# [1] = target: human MC3R (human, UniProt P41968 1-323)
# human MC3R, sequence (P41968 whole entry): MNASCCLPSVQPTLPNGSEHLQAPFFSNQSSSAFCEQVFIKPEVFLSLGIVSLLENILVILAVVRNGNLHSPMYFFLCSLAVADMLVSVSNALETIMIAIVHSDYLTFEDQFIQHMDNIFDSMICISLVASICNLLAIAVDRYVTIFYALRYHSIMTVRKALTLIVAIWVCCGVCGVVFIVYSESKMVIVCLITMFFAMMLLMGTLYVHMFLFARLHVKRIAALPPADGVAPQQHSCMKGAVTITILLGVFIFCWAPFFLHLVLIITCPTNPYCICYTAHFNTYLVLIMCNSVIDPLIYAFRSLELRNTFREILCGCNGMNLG
# [2] = target: T1, human MC4R receptor (human, UniProt P32245 1-332)
# T1 sequence (P32245 whole entry): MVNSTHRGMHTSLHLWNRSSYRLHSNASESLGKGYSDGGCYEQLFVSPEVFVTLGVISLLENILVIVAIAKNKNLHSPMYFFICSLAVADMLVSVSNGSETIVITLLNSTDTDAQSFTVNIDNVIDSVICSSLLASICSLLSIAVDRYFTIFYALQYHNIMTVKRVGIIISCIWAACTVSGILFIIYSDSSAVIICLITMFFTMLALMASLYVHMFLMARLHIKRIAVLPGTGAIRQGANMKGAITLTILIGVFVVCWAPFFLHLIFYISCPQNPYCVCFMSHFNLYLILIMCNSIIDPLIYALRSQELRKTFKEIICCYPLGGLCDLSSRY
# [3] = target: T1, human MC4R receptor; remark: listed apart in the source
Binder,% max activation [1] [%],cAMP EC50 [1] [nM],% max activation [2] [%],cAMP EC50 [2] [nM],MC4R selectivity vs MC1R [3],MC4R selectivity vs MC3R [3]
Ac-RC[dA][dR][dPhe(4-Br)]R[dW]C-NH2 (disulfide 2-8) [CTX-1250],10,2090,8.7,185,1.06,11
Ac-RC[dA]P[dPhe(4-Br)]R[dW]C-NH2 (disulfide 2-8; SMILES CC(=O)N[C@@H](CCCNC(=N)N)C(=O)N[C@H]1CSSC[C@@H](C(N)=O)NC(=O)[C@@H](Cc2c[nH]c3ccccc23)NC(=O)[C@H](CCCNC(=N)N)NC(=O)[C@@H](Cc2ccc(Br)cc2)NC(=O)[C@@H]2CCCN2C(=O)[C@@H](C)NC1=O) [CTX-1249],1.9,6.1,22,14,5.08,0.45
Ac-RC[dA]R[dPhe(4-Br)][Cit][dW]C-NH2 (disulfide 2-8; SMILES CC(=O)N[C@@H](CCCNC(=N)N)C(=O)N[C@H]1CSSC[C@@H](C(N)=O)NC(=O)[C@@H](Cc2c[nH]c3ccccc23)NC(=O)[C@H](CCCNC(N)=O)NC(=O)[C@@H](Cc2ccc(Br)cc2)NC(=O)[C@H](CCCNC(=N)N)NC(=O)[C@@H](C)NC1=O) [CTX-1253],9.2,4,58,7.6,0.57,0.53
Ac-R[Nle]CH[dPhe(4-I)]R[dW]C-NH2 (disulfide 3-8; SMILES CCCC[C@H](NC(=O)[C@H](CCCNC(=N)N)NC(C)=O)C(=O)N[C@H]1CSSC[C@@H](C(N)=O)NC(=O)[C@@H](Cc2c[nH]c3ccccc23)NC(=O)[C@H](CCCNC(=N)N)NC(=O)[C@@H](Cc2ccc(I)cc2)NC(=O)[C@H](Cc2c[nH]cn2)NC1=O) [CTX-1233],22,4.1,16,2.2,0.26,1.88
Ac-RC[dA]R[dY]R[dW]C-NH2 (disulfide 2-8; SMILES CC(=O)N[C@@H](CCCNC(=N)N)C(=O)N[C@H]1CSSC[C@@H](C(N)=O)NC(=O)[C@@H](Cc2c[nH]c3ccccc23)NC(=O)[C@H](CCCNC(=N)N)NC(=O)[C@@H](Cc2ccc(O)cc2)NC(=O)[C@H](CCCNC(=N)N)NC(=O)[C@@H](C)NC1=O) [CTX-1237],19,79,61,998,0.24,0.08
Ac-RC[dA]R[dPhe(4-Br)]R[Tic]C-NH2 (disulfide 2-8) [CTX-1259],27,146,70,1250,0.01,0.12
Ac-RC[dA]R[d(αMeF)]R[dW]C-NH2 (disulfide 2-8; SMILES CC(=O)N[C@@H](CCCNC(=N)N)C(=O)N[C@H]1CSSC[C@@H](C(N)=O)NC(=O)[C@@H](Cc2c[nH]c3ccccc23)NC(=O)[C@H](CCCNC(=N)N)NC(=O)[C@@](C)(Cc2ccccc2)NC(=O)[C@H](CCCNC(=N)N)NC(=O)[C@@H](C)NC1=O) [CTX-1240],27,31,81,76,0.46,0.41
Ac-RC[dA]R[dPhe(4-NHAc)]R[dW]C-NH2 (disulfide 2-8) [CTX-1245],6.3,73,34,4450,0.08,0.02
Ac-RC[dA]R[dPhe(4-Br)]R[dF]C-NH2 (disulfide 2-8; SMILES CC(=O)N[C@@H](CCCNC(=N)N)C(=O)N[C@H]1CSSC[C@@H](C(N)=O)NC(=O)[C@@H](Cc2ccccc2)NC(=O)[C@H](CCCNC(=N)N)NC(=O)[C@@H](Cc2ccc(Br)cc2)NC(=O)[C@H](CCCNC(=N)N)NC(=O)[C@@H](C)NC1=O) [CTX-1255],28,7.5,60,31,0.05,0.24
Ac-RC[dA][NMeR][dPhe(4-Br)]R[dW]C-NH2 (disulfide 2-8; SMILES CC(=O)N[C@@H](CCCNC(=N)N)C(=O)N[C@H]1CSSC[C@@H](C(N)=O)NC(=O)[C@@H](Cc2c[nH]c3ccccc23)NC(=O)[C@H](CCCNC(=N)N)NC(=O)[C@@H](Cc2ccc(Br)cc2)NC(=O)[C@H](CCCNC(=N)N)N(C)C(=O)[C@@H](C)NC1=O) [CTX-1248],18,2.8,47,2,1.31,1.36
Ac-RC[dA]R[dPhe(4-tBu)]R[dW]C-NH2 (disulfide 2-8; SMILES CC(=O)N[C@@H](CCCNC(=N)N)C(=O)N[C@H]1CSSC[C@@H](C(N)=O)NC(=O)[C@@H](Cc2c[nH]c3ccccc23)NC(=O)[C@H](CCCNC(=N)N)NC(=O)[C@@H](Cc2ccc(C(C)(C)C)cc2)NC(=O)[C@H](CCCNC(=N)N)NC(=O)[C@@H](C)NC1=O) [CTX-1242],2.8,2.2,5.8,26,0.64,0.08
Ac-RC[dA]R[dPhe(4-Br)]R[d2Nal]C-NH2 (disulfide 2-8; SMILES CC(=O)N[C@@H](CCCNC(=N)N)C(=O)N[C@H]1CSSC[C@@H](C(N)=O)NC(=O)[C@@H](Cc2ccc3ccccc3c2)NC(=O)[C@H](CCCNC(=N)N)NC(=O)[C@@H](Cc2ccc(Br)cc2)NC(=O)[C@H](CCCNC(=N)N)NC(=O)[C@@H](C)NC1=O) [CTX-1254],5.5,9.2,22,4.2,0.26,2.19
Ac-RC[Aib]R[dF][Cit][dW]C-NH2 (disulfide 2-8) [CTX-1271],16,117,95,72,2.9,1.63
Ac-RC[dA]R[dPhe(4-Br)][dR][dW]C-NH2 (disulfide 2-8) [CTX-1252],1.1,57,4.4,885,0.04,0.06
Ac-RC[dA]R[dPhe(4-Br)]R[dTic]C-NH2 (disulfide 2-8) [CTX-1256],17,592,29,7240,0.003,0.08
Ac-RC[dA]R[dPhe(4-Br)]R[dA]C-NH2 (disulfide 2-8; SMILES CC(=O)N[C@@H](CCCNC(=N)N)C(=O)N[C@H]1CSSC[C@@H](C(N)=O)NC(=O)[C@@H](C)NC(=O)[C@H](CCCNC(=N)N)NC(=O)[C@@H](Cc2ccc(Br)cc2)NC(=O)[C@H](CCCNC(=N)N)NC(=O)[C@@H](C)NC1=O) [CTX-1260],13,239,38,4930,0.01,0.05
Ac-RC[dA]RF[NMeR][dW]C-NH2 (disulfide 2-8; not fully specified (residue 5)) [CTX-1251],30,93,31,25,0.11,3.73
